Laboratory results taken from patent US7977459 (TOUDAI TLO, dated 2011).
Where “and” joins values, the source holds several entries; their conditions need not be identical. Equal values may be shown once. One block for each binder: values may come before it.

Assays:
[1] = target: T1, mouse AdipoR2 (mouse adiponectin receptor 2) (mouse, UniProt Q8BQS5 76-386); assay: Scatchard analysis of [125I] Ad binding to C2C12 myocytes; intermediate affinity sites, tied to AdipoR2 because AdipoR2 siRNA abrogated them
T1 construct: also called mAdipoR2
T1 sequence: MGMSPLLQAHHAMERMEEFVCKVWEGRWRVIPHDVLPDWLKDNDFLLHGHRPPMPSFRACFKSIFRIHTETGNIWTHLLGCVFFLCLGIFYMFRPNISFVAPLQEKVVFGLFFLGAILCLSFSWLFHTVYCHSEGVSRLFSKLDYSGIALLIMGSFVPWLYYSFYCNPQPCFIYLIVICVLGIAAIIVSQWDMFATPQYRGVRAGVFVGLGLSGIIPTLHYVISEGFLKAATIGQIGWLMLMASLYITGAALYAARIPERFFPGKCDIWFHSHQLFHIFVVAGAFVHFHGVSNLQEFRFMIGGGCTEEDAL

[2] = target: T1, mouse AdipoR2 (mouse adiponectin …); assay: Scatchard analysis of [125I] gAd binding to C2C12 myocytes; intermediate affinity sites, tied to AdipoR2 because AdipoR2 siRNA abrogated them
[3] = target: T2, mouse AdipoR1 (mouse adiponectin receptor 1) (mouse, UniProt Q91VH1 1-375); assay: Scatchard analysis of [125I] gAd binding to C2C12 myocytes; high affinity sites, tied to AdipoR1 because AdipoR1 siRNA abrogated them
T2 construct: also called mAdipoR1
T2 sequence: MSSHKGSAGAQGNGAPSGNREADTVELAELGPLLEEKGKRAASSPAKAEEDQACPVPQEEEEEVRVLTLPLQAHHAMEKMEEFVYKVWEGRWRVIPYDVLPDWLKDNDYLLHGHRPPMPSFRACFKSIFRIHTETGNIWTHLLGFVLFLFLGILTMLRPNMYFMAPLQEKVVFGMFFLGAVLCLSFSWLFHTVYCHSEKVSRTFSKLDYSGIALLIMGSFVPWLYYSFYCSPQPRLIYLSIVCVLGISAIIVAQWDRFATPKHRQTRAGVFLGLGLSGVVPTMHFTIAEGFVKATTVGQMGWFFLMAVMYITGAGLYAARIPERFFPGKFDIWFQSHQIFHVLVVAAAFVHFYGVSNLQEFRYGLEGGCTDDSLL

Kd [1]: ~6.7 µg/mL and ~49.1 nM
B1: full-length adiponectin (full-length Adipo) (ligand, mouse, UniProt Q60994 18-247, looked up)
chain: EDDVTTTEELAPALVPPPKGTCAGWMAGIPGHPGHNGTPGRDGRDGTPGEKGEKGDAGLLGPKGETGDVGMTGAEGPRGFPGTPGRKGEPGEAAYVYRSAFSVGLETRVTVPNVPIRFTKIFYNQQNHYDGSTGKFYCNIPGLYYFSYHITVYMKDVKVSLFKKDKAVLFTYDQYQEKNVDQASGSVLLHLEVGDQVWLQVYGDGDHNGLYADNVNDSTFTGFLLYHDTN
modifications: 125I-labeled at Tyr in the radioligand binding assay
notes: also called [125I] full-length Adipo

Kd [2]: ~0.8 µg/mL and ~14.4 nM
Kd [3]: ~0.06 µg/mL and ~1.14 nM
B2: adiponectin consisting solely of the globular domain (globular Adipo) (ligand, mouse, UniProt Q60994 104-247, looked up)
chain: KGEPGEAAYVYRSAFSVGLETRVTVPNVPIRFTKIFYNQQNHYDGSTGKFYCNIPGLYYFSYHITVYMKDVKVSLFKKDKAVLFTYDQYQEKNVDQASGSVLLHLEVGDQVWLQVYGDGDHNGLYADNVNDSTFTGFLLYHDTN
modifications: 125I-labeled at Tyr in the radioligand binding assay; biotinylated with NHS-LC-Biotin or conjugated with FITC in the FACS experiments
notes: domain: globular domain; also called gAd; globular adiponectin
